# Measured values published in the DeepSol protein solubility set.
# Test: soluble on expression in E. coli; label from the status in PepcDB or PDB records
row,Sequence,soluble on expression in E. coli
1,MICHQCPDRHDSLEEETMNAYSPPTLLQLARQKLLREEALAISALKDLPRELLPEMFEEAFTDECTKTLRAMIPMWPFPCLPVGTLIKNPNLETLKAVLEGLDILLAPKVRSSRCKLRVLNLRNEHHEFWRIWAGSHEDECLPQLTQKQPVENSPDCGVKKHLQVTTDFELTKGRLDESATYLLQWAEQRKDSIHLCCRKLQIQGLSKDAFIEIFKIIDANCVQELELSCIWEEELPFLNPYLRQMKNLLTLKLDDITEVTMDGDDLFDEKKRRKLISQLFSFYCLQNLYVDGTFAEGNMIECLRYLKKPLETLCLRYCFLSQTDLDYLPHCLNICKLKHLSLSYIYLFNLFLEPLGILLERVRDTLQTLELQLCGLTDRHFSVLLPALSQCSHLTKINFYENTISLPVLKQLSYHTANLSQLTQEQYPAPQECYDNMRGVETHRLGNICTELLDILRAKRQPERVAFATSRCIKCRGFLVYDLETQRCFFQH,not soluble
2,MGSDKIHHHHHHMQRIMVIGGPGSGKSTLGRKLGARLGLPVVHMDPIYWLGDWVERDKAEAMRMAKEVADGSQWVFEGNHFASMAYRAERADLIVFLDMPRVLRMWRILWRSLRYYGRTRPDMGPNCPERFNRAFLKFCWTYDREGRLRALGFVDDWRDRRRVRILTSRRQVAAFLVEIDRQ,not soluble
3,PDGDFVDLAWSEDPHQARHKPRLVVFHGLEGSLHSPYAHGLIHAAMQRGWLGVVMHFRGCSGEPNRNHRIYHSGETEDGTWFLHWLKREFGPAPTAAVGYSLGGNMLGCLLAEEGDRCPLDAAVIVSAPFMLEACSYHMDKGFSRVYQRYLLNLLKANASRKLKAYPGSLPVDLRQLKGMRRIREFDDMITAKIHGFADALDYYRQCSAMPRLSDITKPTLIIHAKDDPFMDHHSIPPQEQLPANVEYQLTEQGGHVGFVSGTLRKPEMWLERRIPDWLNRWLE,not soluble
4,MTVSEIRVRKINPRAKIPKRQSEGAAGYDIHSVESGRIPPNGRKSVRTGLAWDVPQSVVGLVFGRSGLALRNWIEVVETCVHPGEDKELVITLVNNGREVFEYEESSRIAQLVFVPVLSCEIDLVESLDLTERGCLGFGSTGMK,not soluble
5,MSLGIPKHDFYLYQSQWVSVKKKPMVHLLPHWNWENKELASKVADSEGKIPVRAYSNASSVELFLNGKSLGLKTFNKKQTSDGRTYQEGANANELYLEWKVAYQPGTLEAIARDESGKEIARDKITTAGKPAAVRLIKEDHAIAADGKDLTYIYYEIVDSQGNVVPTANNLVRFQLHGQGQLVGVDNGEQASRERYKAQADGSWIRKAFNGKGVAIVKSTEQAGKFTLTAHSDLLKSNQVTVFTGKKEGQEKTVLGTEVPKVQTIIGEAPEMPTTVPFVYSDGSRAERPVTWSSEGHHHHHH,soluble
6,CTPKPKSAQPVAEEFFHNVAAQDFDAAAQLTDQDDSARELLSRSWEGLQAEGLDVSLNKVDAKDTVATAKYTLTWKLPKDRTLSYDTSMTLNRINDQWTIRWQPAAVHPKLAANQHLELRAINAERASVVSSDGAEVLVPGVQYRLIADTQHIIDKAATAQTIATHLRAARAADETVPELSASDIQQALETNRGSYSLAVVNERAGDSIKQALAGVSGIRLNKEAAMVNKDPNFAPDVIRRVSSLVNDQLAGANGWSVDAVTQDGVSMQTIERHAPQVAPAIRISLNHNVQVAAERAVNLRKDKQSMLVAIRPSTGEILAIAQSDLADKQGDLALNGQYPPGSTFKIVTASAGIQDQGLNADSIVPCPGTMNIYGRTVTNYNGFSLGNVPLEKAFARSCNTTFANISEQLNKGQLKEIGRDFGIGIDYDIPGLNTLTGSIPQGDTELARTEAGYGQGE,not soluble
7,MGSDKIHHHHHHMRILILGAGKMGSFFTDILSFQHETAVFDVNPHQLRFVYNTYRFTTLEEIKEFEPELVINAATVKYTLDAFRKILPVLPKDCILSDIASVKTGLKKFYEESGFRYVSTHPMFGPTFASLSNLSSESAIIISESDHLGKVFFKDLYNSLNLNIFEYTFDEHDETVAYSLSIPFVSTFVFAAVMKHQEAPGTTFKKHMAIAKGLLSEDDYLLQEILFNPRTPSQVENIRTELKQLLEIITNKDAEGMKKYLTKIREKIK,not soluble
8,MVKFLRDLVKIPGESAEEGNKIARAKAEMEKLGFDKIDIDPQGNLLGYMGSGEKLIAFDGHMDTVGIGEMSNWKFDPYDGYETETEIGGRGTSDQEGGIVSAIYGAKIMKDLGLLSEKYTALVTVTVQEEDCDGLCWQYIIKEDGIRPEFVVSTEPTDGGIYRGQRGRMEIKVDVKGVSCHGSAPERGDNAIYKMADILQDVRALNNNGDTESTAIRGLVRMLDPKYNPEWQEARFLGRGTVTVSQIFHSSPSRCAVADGCTVSLDRRMTAGETWESCLEEIRNLPAVKKYGDDVTVSMYNYDRPSYTDLTYEIECYFPTWVIPENHDVTKALMETHKNLYGETRKGSVETVEMREERPLLDKWTFSTNGVSIMGRNGIPCIGFGPGAEAQAHAPNEKTWKDDLVRCAAVYAALPTVYCG,not soluble
9,LYKKAGLMVDKKLVVVFGGTGAQGGSVARTLLEDGTFKVRVVTRNPRKKAAKELRLQGAEVVQGDQDDQVIMELALNGAYATFIVTNYWESCSQEQEVKQGKLLADLARRLGLHYVVYSGLENIKKLTAGRLAAAHFDGKGEVEEYFRDIGVPMTSVRLPCYFENLLSHFLPQKAPDGKSYLLSLPTGDVPMDGMSVSDLGPVVLSLLKMPEKYVGQNIGLSTCRHTAEEYAALLTKHTRKVVHDAKMTPEDYEKLGFPGARDLANMFRFYALRPDRDIELTLRLNPKALTLDQWLEQHKGDFNLL,soluble
10,SLENKIVKIEPQSIAEEMGIEVGDSLISINGKEVKDIIDYRFLMADEYVVVKIQKTNKEIWELEIEKEYDEKLGVEFESGILDSAKSCRNKCIFCFIDQLPKGMRKTLYFKDDDSRLSFLQGNFVTLTNMSDDDIDRIIKYRISPINISVQTTNPELRKKMLNNKFAGNLMERMKKLSNAGITMNCQVVLCPGINSGEEFSKTVNDLYKLYPSVKNIAGVPVGITSYREGLFNMVPYDSQSALKEIENIKPIQEKFIKEIGSPFVRLSDEFYVLSGIPIPKAEFYGEFEQFEDGIGMIRTFRDNINMSLDNLKDGIHKSFTMVTGVLAYEEIENAAKMLMEKSRGLKINVIKVINEFFGEKITVAGLLTGRDILNYLKRNEVGDYIILPSNMLKSDEDVFLDDVKVLDIEKELNKKVLVCNYSGEDLVDIINKNGREE,soluble
11,SLETYGDSLATAVAERWNNHQAFIFGLATGAVVRLIAPLLQSKQSDPAVLVVDAMGQSVISLLSGHQGGGDRLAQIVAEQLQAKAILTGGANGLGQIAVDCLGIPFGWRKGKGDWTAVSSALAAQKLVGVTQTAGLTLWQNHLPPGHGFTFSGTKETTATLLITVQESNLEKLNKPMAPWHPRLLWIGVGCVRGTDLALLERALLEVLERENLSPLAIAGLASVHLKADEVGMQQFAQKYDLPFFTFPPEQLAAQAVPNPSEVVLQEVGTPSVAEAAALTAAQMYSQGGKLIAEKVIVKQHNQAVTVAIAKGE,not soluble
12,MAEIRVGTASWTDPTLLASGWYPPGVRNHPERRLRYYAQHFDTVEVDSTFYALPRLEVVRKWAERTPEGFLFHVKAYSAFTGHGLEASALPKDLQALLPQKEGHLSQREVPEEVVEEAWNRFFASLAPLREAGKLGYLHFGLPPWTEPKPRSFRYLERLAERTQGYLVAVEFRNPRWYTAWGFVKRELMRLGLAHVSVDAPPHPEAPPRVLEPTREVAVLRCHGRNAETWKGPHQKPYERFNWRYSEEELLDLAEATRTLAAQAERVFVIFNNNYGTQGVEAALGLKRLLGLGKPPWAEGPFS,soluble
13,MSSALLRAAYAYDRLRAHPPEVAGQIATAMASAVHPKGEEPVFLELGVGTGRIALPLIARGYRYIALDADAAMLEVFRQKIAGVDRKVQVVQADARAIPLPDESVHGVIVVHLWHLVPDWPKVLAEAIRVLKPGGALLEGWDQAEASPEWTLQERWRAFAAEEGFPVERGLHAKRLKEVEEALRRLGLKPRTREVARWREERTPREALEALSERLYSFTQGLPEPVHARVMERLWAWAEAELGDLDRPFPVEKRFLLRVSRLG,soluble
14,HKGTLYVVATPLGNLDDMTFRAVNTLRNAGAIACEDTRRTSILLKHFGIEGKRLVSYHSFNEERAVRQVIELLEEGSDVALVTDAGTPAISDPGYTMASAAHAAGLPVV,not soluble
15,MSLRILITGNMGYIGPVVARHLRQQYPDAWLVGLDRGWFAHCLSDPRQLPEVVLDQQWFGDVRDLTAQQLSGFDGVVHLAAISNDAMGKRFEQVTDAINCRASVAVAQAAAQAGVKHFVFASSCSVYGAAADGTPRSESSAVAPLTAYAHSKIDTERALAQLETDMVITCLRFATACGASPRLRLDLVLNDFVASAVANGTVEVLSDGSPWRPLIHVRDMARAIDWALGRTPLAGGRFLAVNAGAEQWNVQIRDLAQAVGAAMPSATVSISTTAPADNRSYRVDFSLFQRLAPQHQPQQTLQSTITELRDDLLRAGFADGDFRQSSDFIRLRILQQLVDSGALAADLRAEGHHHHHH,soluble
16,MKEIELIATAAAGVESVVKHEVKKLGFKDITVDNGKIMFKGDISSIPRANLWLRSADRVLLKMGEFEALTFEELFDKTYALPWDQWITSDGKFTVLGKSVKSKLFSISDCQAIVKKAVVEKLKSKYHVEWFEESGPEYTIQVALHKDIATLTIDTSGTALHKRGYRAKNVEAPIKETLASAMILISYWNKRKPLWDCFCGSGTIPIEAALIGRNIAPGLNRTFASEEWPAIGKDIWKQERALALRAIDHDIKLKIYGSDINPDAIELAKENACLAGVDDCIEFFVSDFRNVNIKEDYGVIICNPPYGERIGEQQEVETINKDMGKTFSKYDTWSKYIITPFENFERLYGKKADKKRKFYNGNIKVDYYQYFGPKPTNT,soluble
17,MGSDKIHHHHHHMTAQFDDATLTKRLAKGTGEILKGVRNVGLLRGRELGEAGDDLAQNWIARVLEQHRPDDGFLSEEAADNPERLGKDRVWIIDPLDGTKEFATGRQDWAVHIALVENGVPTHAAVNLPDLGVVFHSSEVRAVGGPYAKKIAISHNRPPAVATHIAESLGFTAEPMGSAGAKAMHVLLGDYDAYIHAGGQYEWDSAAPVGVSLAAGLHCSRLDGTPLNYNNKDTYLPDVLICRPELADDILTMAAAFREENGSY,not soluble
18,STQFINKLYASYLREKAYLTAQKHWEKDEIDEQSYQIIQRKYDELLPEAHEILLNMDSLSEVRDTLNKYLTQHQQALLIAGEDSVPFSFKYKDQLGAALYYPDNEGNFIVLVMSRNVYGAEIKE,not soluble
19,MSQILNVTLITETFTPEINGVANTLGRLCDGLRLRGHRVELVRPRQSDEINSGAADDLMLCRGWPIPGYPGLQWGQSSMHKLLRRWQRRRPDVLYIATEGPLGLSALRAARRLGIAVISGFHTNFPQYTQQYGMGFITRLLTHYLRWFHNRSRVTLVPSVSQKVELERRGFERIELLSRGVDSQLFNPSRCSQALRESWGLQTGDIGVIHVGRLAPEKNLGLLKTGFEALKSSYPQRTIKLIVVGDGPQRSELEQQIPDAIFCGTLRGEVLATHYASADMFLFPSLTETFGNVVLEALASGLGVVAYDEAAAGQHIRHGHNGALAMPGDETAFVDAARWLLEDSENLRRVRLNARQHASRQGWTAIIDQFERQLRDACPSESSKTLRQTSDKTIRPVSSMPLDLEHHHHHH,not soluble
20,MKVAGTSAPPETAPAASRPGLRELKKQRTRDLLLRSALELFTERGYEETTVDDIAEAADVSQRTFFRYFASKEDAAFFVARLAESHFVRAVLARPPEEAPLDALRRALAESWSTIGEAVEQLVPLELHMRFYRVIESTPALLAAHLRRATELEEEIARVVAVREGLDVDTDPRPRVIVAVFGAVMRVTERIWSARDDASLAALRDLTADYLDQVAPALTGNWRRAET,soluble
